Experimental data reported in US20160280744A1.

What was measured:
[1] = target: human IgG (Oriental Yeast Co., ltd) (human); experiment: affinity column (1 ml carrier with immobilised protein), human IgG 1 mg/ml at pH 7.2, 10% breakthrough, flow rate 1.0 mL/min
[2] = target: human IgG (Oriental Yeast Co., ltd) (human); experiment: pH gradient affinity chromatography, bound at pH 7.2, gradient 20 mM citric acid pH 6.0 to pH 2.4 over 80 min
[3] = target: human IgG (Oriental Yeast Co., ltd) (human); experiment: affinity column (1 ml carrier with immobilised protein), human IgG 1 mg/ml at pH 7.2, 10% breakthrough, flow rate 0.4 mL/min

B1: tandem-type tetramer PG, rPG-A4 (CGB19H-4D) (designed binder)
chain: MAYYDPETGTWYSGGRDTYKLILNGKTLKGETTTEAVDAATAEKVFKHYANEHGVHGHWTYDPETKTFTVTERPEVIDASELTPAVDTYKLILNGKTLKGETTTEAVDAATAEKVFKHYANEHGVHGHWTYDPETKTFTVTERPEVIDASELTPAVDTYKLILNGKTLKGETTTEAVDAATAEKVFKHYANEHGVHGHWTYDPETKTFTVTERPEVIDASELTPAVDTYKLILNGKTLKGETTTEAVDAATAEKVFKHYANEHGVHGHWTYDPETKTFTVTERPEVIDASELTPAVGGGGSGGGGSGGGGSGGGGCHHHHHH
- dynamic binding capacity (DBC) [1]: 5.3 mg
- pH at the peak of the elution of human IgG [2]: 4.4 pH
- dynamic binding capacity (DBC) [3]: 12.3 mg
